Test results: patent CN108948202A (BOAOXIN BIOTECHNOLOGY NANJING CO LTD, dated 2018)

Columns and labels:
[1] = target: T1, 重组人PD1带his标签的蛋白 (Sino biological inc., cat#10377-H08H) (human, UniProt Q15116 25-167); experiment: ELISA, hybridoma supernatant on coated human PD1-his
T1 construct: Detection antigen for serum titres and hybridoma screening; also called 人PD1-his蛋白抗原; PD1-his; not shown: his tag

生物素标记人PD1-Fc蛋白 = target: T2, 生物素标记人PD1-Fc蛋白 (human, UniProt Q15116 25-167, limits assumed, biotin-labelled (site not stated)); experiment: capture ELISA: antibody captured by anti-mouse IgG Fc, 60 nM biotinylated human PD1-Fc
T2 construct: also called PD1Fc biotin; 人PD1抗原; not shown: Fc part
T2 sequence (Q15116 25-167 limits assumed): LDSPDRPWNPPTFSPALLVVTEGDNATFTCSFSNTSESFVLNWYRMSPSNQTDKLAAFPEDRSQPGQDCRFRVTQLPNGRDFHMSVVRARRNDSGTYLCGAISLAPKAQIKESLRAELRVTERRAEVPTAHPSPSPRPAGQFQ

T1 sequence (Q15116 25-167 limits assumed): as above

- binding result [1]: binds
- binding result (生物素标记人PD1-Fc蛋白): binds
B1: D2G3 抗人PD1小鼠单克隆抗体 (antibody, V domains shown)
VH: QEQLKQSGPGLVAPSQTLSITCTVSGFSLESYGVDWVRQSPGKGLEWLGVIWGSGSTSYNSGLKSRLSISKDNSKKQVFLEMKSLQTDDTAMYYCAIDGGFASWGQGTLVTVSA
VL: DIVMTQAAPSVPVTPGESVSISCRSSKSLLHSNGNTYLYWFLQRPGQSPQRLIYYMSNLASGVPDRFSGRGSGTDFTLRISRVEAEDVGVYYCMQSLEYPYTFGGGTKLEIK
notes: Tested as a mouse monoclonal antibody from a hybridoma (supernatant or small-scale purified); also called D2G3抗体; 本发明的抗人PD1单克隆抗体
